These results are taken from paper PMC9554601.

The target in the experiment is stabilized SARS-CoV-2 spike protein trimer (S-6P) (SARS-CoV-2) (UniProt P0DTC2). Briefly: cryo-EM structure.

For orientation: stoichiometry N means a count of units in the complex or per binding partner. As for “stabilized SARS-CoV-2 spike protein trimer (S-6P) (from UniProt P0DTC2)”, the stoichiometry N was determined as 3.
